In paper PMC3400614, “Cofactor Binding Protects Flavodoxin against Oxidative Stress” (PLoS ONE, 2012):

Assays:
[1] = biological target: T1, flavodoxin II (flavodoxin; apoflavodoxin) (Azotobacter vinelandii, UniProt P00324); test: native nano-electrospray mass spectrometry; type: binding; details: non-covalent, one FMN per monomer; 50 mM ammonium acetate, 0.1 mM EDTA, pH 6.8
T1 construct: gene nifF; full-length wild type, 179 residues, expressed in E. coli TG2 (pAV34); monomer; apoprotein made by TCA precipitation

[2] = biological target: Apoflavodoxin (A. vinelandii flavodoxin II without FMN cofactor) (Azotobacter vinelandii) (UniProt P00324); test: SEC; Superdex 75 HR 10/30, 0.5 mL/min, 25°C; apoprotein (38 μM wild type, 79 μM C69A) fresh and after 22-24 h with 10 mM H2O2 at 4°C; DTT removed before
[3] = biological target: Apoflavodoxin (A. vinelandii flavodoxin II without FMN cofactor) (Azotobacter vinelandii) (UniProt P00324); test: SEC; data not shown; apoflavodoxin freshly prepared and during storage
[4] = biological target: Apoflavodoxin (A. vinelandii flavodoxin II without FMN cofactor) (Azotobacter vinelandii) (UniProt P00324); test: LC-MS; reversed phase (acetonitrile, TFA) and electrospray MS; protein 5 µM after 30 min at room temperature with 10 or 100 mM H2O2, with or without 190-200 µM NBD-Cl; denaturing, shows covalent dimers only
[5] = biological target: Apoflavodoxin (A. vinelandii flavodoxin II without FMN cofactor) (Azotobacter vinelandii) (UniProt P00324); test: anion exchange chromatography; MonoQ HR5/5, 25 mM Tris-HCl pH 8.0, KCl gradient, 1.0 mL/min, 25°C; apoflavodoxin 50 μM left without DTT

T1 sequence (P00324 2-180): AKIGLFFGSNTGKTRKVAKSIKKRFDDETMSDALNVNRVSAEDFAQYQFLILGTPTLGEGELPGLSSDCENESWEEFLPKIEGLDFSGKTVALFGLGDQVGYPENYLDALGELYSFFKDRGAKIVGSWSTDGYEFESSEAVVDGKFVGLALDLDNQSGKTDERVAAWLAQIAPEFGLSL

Compound	native nano-electrospray mass spectrometry [1]	stoichiometry N [2]	stoichiometry N [3]	stoichiometry N [4]	stoichiometry N [5]
Cc1cc2nc3c(=O)[nH]c(=O)nc-3n(C[C@H](O)[C@H](O)[C@H](O)COP(=O)(O)O)c2cc1C [FMN]	flavodoxin indeed contains a single, non-covalently bound, FMN cofactor				
Apoflavodoxin (A. vinelandii flavodoxin II without FMN cofactor) (from UniProt P00324 1-180) (natural protein)		2	2	2	2
